Laboratory results: patent US20230416345A1, “NEW TYPE II COLLAGEN BINDING PROTEINS” (Navigo Proteins GmbH, priority 2020, published 2023)

B1: CID 211999 (SEQ ID NO: 38), dimer of SEQ ID NO: 2 (directly joint monomers) (designed binder, not shown: small tags and cut ends)
chain: IAAKFDEAQSAADSEILHLPNLTEQQRHYFRRWLSDDPSVSTHILTQAQHLNDDQAPKIAAKFDEAQSAADSEILHLPNLTEQQRHYFRRWLSDDPSVSTHILTQAQHLNDDQAPKSAWSHPQFEK
B2: CID 212000 (SEQ ID NO: 39), dimer of SEQ ID NO: 2 with linker between the monomers (designed binder, not shown: small tags and cut ends)
chain: IAAKFDEAQSAADSEILHLPNLTEQQRHYFRRWLSDDPSVSTHILTQAQHLNDDQAPKGGGGSGGGGSGGGGSGGGGSIAAKFDEAQSAADSEILHLPNLTEQQRHYFRRWLSDDPSVSTHILTQAQHLNDDQAPKSAWSHPQFEK
B3: CID 212001 (SEQ ID NO: 41), tetramer of SEQ ID NO: 2 (designed binder, not shown: small tags and cut ends)
chain: IAAKFDEAQSAADSEILHLPNLTEQQRHYFRRWLSDDPSVSTHILTQAQHLNDDQAPKIAAKFDEAQSAADSEILHLPNLTEQQRHYFRRWLSDDPSVSTHILTQAQHLNDDQAPKIAAKFDEAQSAADSEILHLPNLTEQQRHYFRRWLSDDPSVSTHILTQAQHLNDDQAPKIAAKFDEAQSAADSEILHLPNLTEQQRHYFRRWLSDDPSVSTHILTQAQHLNDDQAPKSAWSHPQFEK
B4: 210987 (SEQ ID NO: 36) (designed binder, not shown: small tags and cut ends)
chain: IAAKFDEAQQAAFYEILHLPNLTEQQRNYFIQWLRDDPSVSLEVLGTAQRLNDSQAPKIAAKFDEAQQLAFYQILHLENLTEEQRNAFIQSLRDDPSVSLEVLGEAIKLNLSQAPK

Key:
[1] = target: human type II collagen (type II collagen alpha I chain) (human) (UniProt P02458); test: SPR, Biacore 3000, Langmuir 1:1 model
[2] = target: human type II collagen (type II collagen alpha I chain) (human) (UniProt P02458); test: ELISA, collagen coated on the plate, dilution series of the binder, detection via StrepTag, A 450-600 nm
[3] = target: human type II collagen (type II collagen alpha I chain) (human) (UniProt P02458); test: ELISA (KD determination by ELISA, Example 5)

Binder	Kd [1] [nM]	Kd [2] [nM]	Kd [3] [nM]
B1	127	8.06	
B2	180	6.38	
B3	< 0.5	0.3	
B4	169		460
